In this assay the target is acid alpha-glucosidase (GAA phosphodiester) (Homo sapiens, UniProt P10253). Description: SPR.

As a reminder, the Kd is the free concentration of one partner at which half of the binding sites on the other are occupied at equilibrium, for simple one-to-one binding. Read a low Kd as higher affinity.

B1: CI-MPR domains 1-5 1-726 (protein)
chain: MGAAAGRSPHLGPAPARRPQRSLLLLQLLLLVAAPGSTQAQAAPFPELCSYTWEAVDTKNNVLYKINICGSVDIVQCGPSSAVCMHDLKTRTYHSVGDSVLRSATRSLLEFNTTVSCDQQGTNHRVQSSIAFLCGKTLGTPEFVTATECVHYFEWRTTAACKKDIFKANKEVPCYVFDEELRKHDLNPLIKLSGAYLVDDSDPDTSLFINVCRDIDTLRDPGSQLRACPPGTAACLVRGHQAFDVGQPRDGLKLVRKDRLVLSYVREEAGKLDFCDGHSPAVTITFVCPSERREGTIPKLTAKSNCRYEIEWITEYACHRDYLESKTCSLSGEQQDVSIDLTPLAQSGGSSYISDGKEYLFYLNVCGETEIQFCNKKQAAVCQVKKSDTSQVKAAGRYHNQTLRYSDGDLTLIYFGGDECSSGFQRMSVINFECNKTAGNDGKGTPVFTGEVDCTYFFTWDTEYACVKEKEDLLCGATDGKKRYDLSALVRHAEPEQNWEAVDGSQTETEKKHFFINICHRVLQEGKARGCPEDAAVCAVDKNGSKNLGKFISSPMKEKGNIQLSYSDGDDCGHGKKIKTNITLVCKPGDLESAPVLRTSGEGGCFYEFEWHTAAACVLSKTEGENCTVFDSQAGFSFDLSPLTKKNGAYKVETKKYDFYINVCGPVSVSPCQPDSGACQVAKSDEKTWNLGLSNAKLSYYDGMIQLNYRGGTPYNNERHTPRATL
modifications: GAA N-glycans modified to contain only phosphodiesters
As for B1, the Kd is about 60 nM.
